What all share (details): 100 mM Na+, pH 7.5, 21 C; slow pulling (100 nm/s) for equilibrium measurements
Data set [1] relates to HMGB2 (box A), +/- His tag average (human). The data set is described as follows: optical tweezers, WLC/FJC linear combination fit.
Data set [2] deals with Nhp6Ap (Saccharomyces cerevisiae). Put plainly: optical tweezers, WLC/FJC linear combination fit.
In data set [3] the test system is HMGB2 (box A) +his (human). The data set is described as follows: optical tweezers, overstretching force vs concentration.
Data set [4] concerns HMGB2 (box A), +/- His tag average (human). The description is as above.
Data set [5] deals with HMGB2 (box A) -his (human). The data set is described as above.
Data set [6] deals with Nhp6Ap (Saccharomyces cerevisiae). The description is as above.
In data set [7] the test system is HMGB2 (box A), +/- His tag average (human). Put plainly: optical tweezers, persistence/contour length, Hill fit.
Data set [8] concerns Nhp6Ap (Saccharomyces cerevisiae). The description is as above.
Data set [9] relates to HMGB2 (box A) +his (human). The data set is described as follows: optical tweezers, persistence/contour length vs concentration.
Data set [10] deals with HMGB2 (box A), +/- His tag average (human). The data set is described as above.
The test system of data set [11] is HMGB2 (box A) -his (human). The description is as above.
Data set [12] relates to Nhp6Ap (Saccharomyces cerevisiae). The data set is described as above.
Data set [13] concerns HMGB2 (box A), +/- His tag average (human). The data set is described as follows: optical tweezers, overstretching force, Hill fit.
Data set [14] concerns Nhp6Ap (Saccharomyces cerevisiae). The data set is described as follows: optical tweezers, overstretching force, Hill fit.

Regarding phage lambda DNA, the Kd in data set [1] stood at 460 nM; in [2] it was 63 nM; in [3], 930 nM; in data set [4], 880 nM; in data set [5], 830 nM; in [6] it was 160 nM. Moreover, the Kd is 170 nM in [7]; 66 nM in [8]; 230 nM in [9]; 180 nM in [10]; 130 nM in [11]; 71 nM in [12]. The Kd came out at 850 nM in [13] and 150 nM in [14].

One may read the Kd as a measure of binding affinity in units of concentration.

For the origin of these results see publication PMC3592474.
